According to the domain aggregation screens of Martell et al. (2025):

Test: soluble fraction after stress (log2 fold change); higher = more stays soluble; pooled small domains, quantitative proteomics
Settings: stress: 50 degC
In short: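 Pooled custom libraries of small protein domains were each held under stress at 50°C. The read-out, high-throughput quantitative proteomics, tracked how much of each protein stayed soluble. This is reported as a base-two log fold change used to indicate aggregation propensity. Higher values mean more protein remains in solution.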

| Sequence | soluble fraction (log2) |
| --- | --- |
| HMPGRKKLAIIYKNDYIGAFNLADSYRDSYEVSMYAFPKKVGKLLNRLELQGFNAYVIYDKDNEENNFNTI | -1.65 |
| HMPGSGELSRRLELAIRDRTAVRVTAAAAGQERSFTLLPVAITSGRLRATDEQAGVQRTLPLSAIVAVEA | -0.0911 |
| HMPGTEAQDGEVLLDALRRIHPDSSTGTLRRMLTQGRVQVDGTTVHAAKAELTSGQHVEVVAR | 0.0101 |
| HMPIDIEPVLQWIRDNSIDGIGPARSMYHSAAAAAGLPSYSSLQLRKWTWPLLLDAAGVQRR | -0.433 |
| HMPIRMLQVQKTNTGYLNVRDTPSVSGALIGKVFPGDMLSSTEERDGWFLVAVPQGGTGWVSGDYVKTTS | -0.0387 |
| HMPKAPHETLSRREMEVLLLLSEGVTLTRIGDTIHVSVKTVSTYRARILQKLDLQSNAELTRYVLQHKL | -3.38 |
| HMPKHDWDAFAGAIARRVHDHGMPVSQGELVRDMMDWFAGRKDFPPPDERTVRRKVSAIWRELNG | -1.02 |
| HMPKIPRLTLTETAGIMGVSQRALALAIQQGMYSWAQALPGRNKKRPIYFINAITFAKAQGIDLEEYK | -1.11 |
| HMPKKLIWERTTSKLQLYITQDRYELKTPLMTIPFTSKSKMMVYLQQRYHLDMQEYRQIYDAG | -2.21 |
| HMPKMDGLTVMEQVNQDHFVNKRPYFIVITAVGQEKITEDAFNKGANYYVMKPFNNNMLLERIKSVRK | 0.294 |
| HMPKYLNIYHELAQRIQEGALPAETKLPSETELMQEFEASRGTVRKAIDALQEKGFVRKHQGKGVFVLSQ | -0.371 |
| HMPLDYNELRSISPKAARQAILQILAANKGNVSATAKLLGVSRKTVYKAMHKKASGNLDDTSRAPK | -0.851 |
| HMPLITAIELDSISARSFQFNTQSGSTYFIEGSTDLKSWDVIAEVKATDSTTTYEDHRKIYHEAYFYRVRL | -2.01 |
| HMPLITDIKIQVKNTEKVSLFVDGKYSFSLTISQLAEHKILKTNQEISAKQVAEFKKLSNLTNLYIRIVG | -0.149 |
| HMPLITLSAEIQSEQIGQRLDQTLAELFPEYSRSRLKTWIEADLVKLNNQIVNIPREKVLGGEHVEITVDI | -0.611 |
| HMPLNRFLNLPHEDKERVLLIAKKQFSTHGYDAMSLNLLLKELDISKGQFYYWFEDKADLFFTVL | 0.0032 |
| HMPLRPNQRQFIHLMVYQGLDRNEAYAQANNKVLTEENYESIRTAAAKTFYTPHVNNYYHALMEEIRDRE | -0.299 |
| HMPLSVRQRMSDILSNLKTSDFTNFADLFDPKEGRTGITVTFIAILELLREFLIEVVQSDHYQPLHVRAAS | -0.291 |
| HMPLTAASLQTYLRGVDYPASKQDLIAHARKSDAPEDAITVLEQYSEQTYRSAADVSAEFGS | 0.178 |

| Sequence | soluble fraction (log2) |
| --- | --- |
| HMPLTEMAVRKHLSAELAQKGYTIDPRALEILLQRTNTNLTAIANELPKLLLVAEDKQITVNEVSAM | -0.164 |
| HMPLTKKLETLFSLFPKYEKELKKKGVTRIHVWANYKEEYPDGIGRSQFIHYYSFWKKQVSP | -0.118 |
| HMPLVIIRGIEGVFSSEEKAEAIRKVTDALVSVKGENVRGFAWVVFEEVKSGDWGIGGESITAEKVIMSL | -0.0828 |
| HMPMDDETWDALSLFAYKRYARENGWPLMIGAEALRDTFASYFPLDSSTWQDRSSHYLTYQDGIYTRT | -0.53 |
| HMPMDYFELFNIPRNANRETIKKILDQEYEKYRARVVSPVLEIRHEAELMLVEISKAKQVLLG | 0.111 |
| HMPMHPEDLKKLVSIEMPFGKHKGRIIADLPGNYLNWFAREGFPPGEIGRLLQLMQEIDHNGLSDLLKPLR | -0.3 |
| HMPMNISDIIKQAREELGMTQEDLAERLEVSRQAVSKWELGASVPSPENLRLLEELLGVELPAP | -0.0297 |
| HMPNFDPSYILDFGDVIQLQLVGQKNQILEIPILRDGSVNLPDIGKIFLSGMSLEEATKIIKDTYSA | -0.679 |
| HMPNGEAYQRFTYENDILEGRFEEWDSLGTDIVKGDYTAGVRHKKWLYYDSEGRRDKFVFLDMDSI | 0.0763 |
| HMPNNNDIVLDRVSFGYHEKEVLHGIDMTIREGTVNALVGPSGSGKSTIAKLIAGLWDVDGGSISF | 0.154 |
| HMPNPSAGRVHIDALLPFDRVEVTDMQGSLLLDHSFSPRRAVDLDLNARGTLLYTLWSKGHLLGKGRVVR | 0.0169 |
| HMPNQLLELVEMEIRDLLNEYEFPGDDTPIIQGSALKALEDPMGPWGDKIMDLMDAVDSYIPDPE | -0.581 |
| HMPPAIKTLMFMIQNKSLLKSPKQLAVVQQQLKKIKGVRDVLILLEEGKVMLKVNKHETIHEASIIRLLGG | -0.521 |
| HMPPALTELLSVRTNASGTIDYLLPDRSAGLRVENGSKYSGMVPDSIYRLVAIYEIKDAKEPSAYIYTI | -0.00921 |
| HMPPFDDILAEYYEPLYRHVRRMVVSHDDAKDVMQEAMLRIFQGLDGLKDPSAVRTWVWRIATNEALRH | 0.0662 |
| HMPPPVDLDKKGYKLRGIVLEDGRSAAFVFVPAEKRVVVLRENASGPVRLLETGMRRIRLQTPEGAGYLEL | -0.724 |
| HMPPQPATQNTKAQVMQLAREKELMAGEGRGANVEALEKFANEHGISLRGMTEEQAEQLVKLLMEYTP | -0.258 |
| HMPPRFVPATGADLRRWLDVSGLTAEAAGDLLGVSGARFRQWLSRYRSAPLPDPVRALLVALLRP | -0.155 |
| HMPPSRFNELSMWFQEQLTEAGLKVDSGALKMLIEWLGQDQARLPSIIEVLVSTYGTKKKLTVDEIEPFL | 0.234 |
